These results are taken from publication PMC7939288, “An apta-aggregation based machine learning assay for rapid quantification of lysozyme through texture parameters”.

The data set has as its target lysozyme (chicken (hen egg white), UniProt P00698 19-147). Briefly: visible aggregation assay (photograph texture); 3 ul of 25 nM aptamer + 10 ul of lysozyme; indirect read-out, lysozyme alone gave no aggregate; lysozyme in ultrapure water, no buffer or salt stated; 25 nM aptamer (3 ul) heated at 70 C for 3 min before use; 20 C, 70-90% relative humidity, about 1 min on. The conditions noted are these: protein: commercial; 3' hairpin (predicted only).

Sequence of lysozyme (P00698 19-147): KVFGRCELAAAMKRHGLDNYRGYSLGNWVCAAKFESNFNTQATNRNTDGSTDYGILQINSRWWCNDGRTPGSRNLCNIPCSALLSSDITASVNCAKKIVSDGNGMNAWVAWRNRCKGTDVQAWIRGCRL

With ATCTACGAATTCATCAGGGCTAAAGAGTGCAGAGTTACTTAG (ssDNA) [anti-Lys aptamer (Ellington)], the binding result is “binds”.
